The record followed here is doi:10.1101/2025.05.09.653011 (bioRxiv, 2025).

Assay [1] has as its target Human wild-type peptidylprolyl cis-trans isomerase A (PPIA) (human, UniProt P62937 2-165). Briefly: NMR titration.
A further assay deals with Human PPIA K76E mutant (human, UniProt P62937 2-165, K76E). Briefly: NMR titration.
Chain of Human PPIA K76E mutant (P62937 2-165 K76E): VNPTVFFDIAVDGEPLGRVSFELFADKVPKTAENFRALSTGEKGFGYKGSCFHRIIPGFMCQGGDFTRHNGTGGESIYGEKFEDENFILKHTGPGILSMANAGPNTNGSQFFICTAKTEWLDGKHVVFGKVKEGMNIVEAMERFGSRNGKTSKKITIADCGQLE

Chain of Human wild-type peptidylprolyl cis-trans isomerase A (PPIA) (P62937 2-165): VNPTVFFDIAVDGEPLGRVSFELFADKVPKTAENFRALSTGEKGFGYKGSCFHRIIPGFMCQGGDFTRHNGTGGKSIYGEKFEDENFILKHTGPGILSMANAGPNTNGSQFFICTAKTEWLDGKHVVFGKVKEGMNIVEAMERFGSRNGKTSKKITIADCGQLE

Consider Ac-FGPDLPAGD-NH2 [Ac-FGPDLPAGD-NH2], for which the binding result (in assay [1]; in the assay with Human PPIA K76E mutant) was “binds” each time.
